The values that follow come from IntAct's records for PubMed 27615052.

First the molecules themselves.
B1: E3 ubiquitin-protein ligase LRSAM1 (Homo sapiens), Q6UWE0 (parent)
chain: MPLFFRKRKPSEEARKRLEYQMCLAKEAGADDILDISKCELSEIPFGAFATCKVLQKKVLIVHTNHLTSLLPKSCSLLSLATIKVLDLHDNQLTALPDDLGQLTALQVLNVERNQLMQLPRSIGNLTQLQTLNVKDNKLKELPDTVGELRSLRTLNISGNEIQRLPQMLAHVRTLEMLSLDASAMVYPPREVCGAGTAAILQFLCKESGLEYYPPSQYLLPILEQDGIENSRDSPDGPTDRFSREELEWQNRFSDYEKRKEQKMLEKLEFERRLELGQREHTQLLQQSSSQKDEILQTVKEEQSRLEQGLSEHQRHLNAERQRLQEQLKQTEQNISSRIQKLLQDNQRQKKSSEILKSLENERIRMEQLMSITQEETESLRRRDVASAMQQMLTESCKNRLIQMAYESQRQNLVQQACSSMAEMDERFQQILSWQQMDQNKAISQILQESAMQKAAFEALQVKKDLMHRQIRSQIKLIETELLQLTQLELKRKSLDTESLQEMISEQRWALSSLLQQLLKEKQQREEELREILTELEAKSETRQENYWLIQYQRLLNQKPLSLKLQEEGMERQLVALLEELSAEHYLPIFAHHRLSLDLLSQMSPGDLAKVGVSEAGLQHEILRRVQELLDAARIQPELKPPMGEVVTPTAPQEPPESVRPSAPPAELEVQASECVVCLEREAQMIFLNCGHVCCCQQCCQPLRTCPLCRQDIAQRLRIYHSS

The first assay covers variants of B1. The note with it: with G3BP1, Q13283.
G3BP1, Q13283, sequence (Q13283 whole entry, looked up): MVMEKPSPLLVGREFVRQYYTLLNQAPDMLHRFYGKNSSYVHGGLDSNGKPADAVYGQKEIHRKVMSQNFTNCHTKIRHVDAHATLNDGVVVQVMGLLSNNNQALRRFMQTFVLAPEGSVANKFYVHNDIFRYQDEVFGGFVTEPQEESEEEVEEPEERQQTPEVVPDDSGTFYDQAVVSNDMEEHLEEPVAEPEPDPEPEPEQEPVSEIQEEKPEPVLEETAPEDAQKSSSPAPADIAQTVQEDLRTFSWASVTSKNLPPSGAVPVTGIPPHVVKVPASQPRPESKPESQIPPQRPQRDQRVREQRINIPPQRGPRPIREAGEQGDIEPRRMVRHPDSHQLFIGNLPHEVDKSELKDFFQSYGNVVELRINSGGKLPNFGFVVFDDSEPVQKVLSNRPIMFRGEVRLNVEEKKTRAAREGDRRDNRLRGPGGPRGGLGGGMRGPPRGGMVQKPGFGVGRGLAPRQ
In the case of C694R, the “effect of a mutation on the interaction” value is given as “disrupting interaction strength”.

The variants in a further assay derive from B1. The note with it: with fus_mouse Fus.
Consider C694R, for which the “effect of a mutation on the interaction” value is “disrupting interaction strength”.
